For one data set, the system named is Rrb1. As to the kind of experiment: Y2H interaction with Rrb1. The following applies: reporter strain PJ69-4A, HIS3 and ADE2 reporters, 3 days at 30 °C. In kind it is binding, S. cerevisiae. On the procedure:
For Y2H interaction assays, plasmids expressing bait proteins, fused to the Gal4 DNA-binding domain (G4BD), and prey proteins, fused to the Gal4 activation domain (G4AD), were co-transformed into reporter strain PJ69-4A. Y2H interactions were documented by spotting representative transformants in 10-fold serial dilution steps onto SC-Trp-Leu, SC-Trp-Leu-His (HIS3 reporter) and SC-Trp-Leu-Ade (ADE2 reporter) plates, which were incubated for 3 days at 30 °C. Growth on SC-Trp-Leu-His plates is indicative of a weak/moderate interaction, whereas only relatively strong interactions permit growth on SC-Trp-Leu-Ade plates.

Another data set addresses T1, Rpl10 (endogenous) (S. cerevisiae (endogenous in yeast …, UniProt P41805 1-221)).
T1 sequence (looked up): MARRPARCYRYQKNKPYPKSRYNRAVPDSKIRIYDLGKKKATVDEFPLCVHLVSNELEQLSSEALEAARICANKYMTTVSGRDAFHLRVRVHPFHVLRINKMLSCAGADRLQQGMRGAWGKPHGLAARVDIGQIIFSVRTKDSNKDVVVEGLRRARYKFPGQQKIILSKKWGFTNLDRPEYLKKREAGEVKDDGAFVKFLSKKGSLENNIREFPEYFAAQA
As to the kind of experiment: cell-based or functional assay.

The next data set addresses Rpl3 (endogenous) (S. cerevisiae (endogenous in yeast …, UniProt P14126 1-387)). Nature of the data set: cell-based or functional assay.
The nature of data set [1]: soluble expression in E. coli. In kind it is physicochemical. The following applies: data not shown for Rpl10.
Another data set concerns RPL3 mRNA. Nature of the data set: co-translational capturing by qRT-PCR, RPL3 mRNA. To be noted: NTAP-Rrb1 purification, cycloheximide-treated cells; one representative experiment, qPCR triplicates. Type of data set: binding, S. cerevisiae. On the procedure:
Cells expressing Sqt1-TAP, NTAP-Rrb1, Syo1-FTpA and Yar1-TAP were grown at 30 °C in 400 ml YPD medium to an optical density (OD600) of 0.8, then cycloheximide was added to a final concentration of 0.2 mg ml^−1 and the flasks were kept, with intermittent vigorous shaking, on ice for 5 min. Cells were harvested by centrifugation for 5 min at 4 °C at 4,000 r.p.m., washed once with 20 ml of ice-cold lysis buffer (100 mM NaCl, 50 mM Tris-HCl (pH 7.5), 1.5 mM MgCl2, 0.1% NP-40 and 5% glycerol) containing 1 mM PMSF and 0.2 mg ml^−1 cycloheximide (lysis buffer-PC) and resuspended in 2 ml of lysis buffer-PC. Equal volumes of the resuspended cells were transferred into two 2.2 ml Eppendorf tubes, briefly centrifuged and resuspended in 600 μl of ice-cold lysis buffer-PC. To prevent RNA degradation, 4 μl of RiboLock (40 U μl^−1; Fermentas) was added. Then glass beads, corresponding to 1/3 of the lysis buffer volume, were added and the tubes were vigorously vortexed for 10 × 30 s with 30-s intervals on ice. Cell extracts were transferred to a new tube and, to maximize the yield, 400 μl of ice-cold lysis buffer-PC was used to rinse the glass beads. […]
For RNA isolation from the TEV eluate aliquot (∼450 μl), the TEV eluate was adjusted to 10 mM EDTA (pH 8.0) and 0.5% SDS. […] RNA concentrations (A260) were determined using a NanoDrop 1000 spectrophotometer (Thermo Scientific). […]
Background: In qPCR the cycle at which signal appears reflects the starting amount.

The next data set has as its system sqt1 mutant cells. Nature of the data set: in vivo ribosomal protein solubility assay. Type of data set: cell-based, S. cerevisiae. To be noted: expressed for 20 min from copper-inducible promoter; in sqt1.E315A and sqt1.E110A/D420A mutant cells; 200,000g 1 h. How it is done: The sqt1 mutant cells, either containing empty vector or a centromeric plasmid expressing Sqt1 from the ADH1 promoter, were grown in a volume of 100 ml to an OD600 of ∼0.7 and expression of C-terminally 2xHA-tagged Rpl10 was induced for 20 min from the CUP1 promoter with 500 μM copper sulfate. After harvesting, cells were lysed with glass beads in a buffer containing 50 mM Tris-HCl (pH 7.5), 100 mM NaCl, 1.5 mM MgCl2, 5% glycerol and 0.1% NP-40, and cell extracts were centrifuged for 3 min at 3,000 r.p.m. Then, total cell extracts, 10 A260 units in a final volume of 500 μl, were subjected to centrifugation at 200,000g for 1 h. Pellets were resuspended in 100 μl lysis buffer and equal amounts of the total extracts (T), soluble extracts (S) and pellet fractions (P) were analysed by SDS–polyacrylamide gel electrophoresis and western blotting using an anti-HA antibody.
Supplementary Figure 9 Sqt1 is required for the soluble expression of Rpl10 in yeast.
Expression of C-terminally 2xHA-tagged Rpl10 (Rpl10-2xHA) was induced for 20 min from the CUP1 promoter with 500 µM copper sulfate in sqt1.E315A or sqt1.E110A/D420A mutant cells containing empty vector (vector) or a plasmid expressing Sqt1 from the constitutive ADH1 promoter (SQT1). […]

Ends that are not written are not given here.

Rpl3 (endogenous) (S. cerevisiae, sequence (P14126 whole entry): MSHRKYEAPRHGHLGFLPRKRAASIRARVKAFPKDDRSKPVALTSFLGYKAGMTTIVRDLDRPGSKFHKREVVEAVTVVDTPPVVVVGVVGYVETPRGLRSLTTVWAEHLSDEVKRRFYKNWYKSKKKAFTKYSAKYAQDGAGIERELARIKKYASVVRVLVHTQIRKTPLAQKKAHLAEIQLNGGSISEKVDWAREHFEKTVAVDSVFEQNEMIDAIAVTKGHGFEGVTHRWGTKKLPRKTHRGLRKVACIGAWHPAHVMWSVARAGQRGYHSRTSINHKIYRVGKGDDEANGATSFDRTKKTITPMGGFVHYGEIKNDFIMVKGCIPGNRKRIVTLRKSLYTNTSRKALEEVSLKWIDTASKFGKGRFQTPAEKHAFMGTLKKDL

With “amino acids 1–15 of Rpl3: amino acids 1–15 of Rpl3, Y2H bait fused to G4BD (MSHRKYEAPRHGHLG; also: fused to Gal4 DNA-binding domain; UniProt P14126 1-15, looked up, fragment)”, the “Y2H interaction with Rrb1” value in the data set with Rrb1 is given as “sufficient to yield a robust Y2H interaction with full-length Rrb1”.

B1: Sqt1-TAP (natural protein, S. cerevisiae, UniProt P35184 1-431, looked up)
chain: MEPQEEFITTEEVEQEIVPTVEVEQDVPVDIEGENDDDDEMMNDDEEALEVDMSNNSLTYFDKHTDSVFAIGHHPNLPLVCTGGGDNLAHLWTSHSQPPKFAGTLTGYGESVISCSFTSEGGFLVTADMSGKVLVHMGQKGGAQWKLASQMQEVEEIVWLKTHPTIARTFAFGATDGSVWCYQINEQDGSLEQLMSGFVHQQDCSMGEFINTDKGENTLELVTCSLDSTIVAWNCFTGQQLFKITQAEIKGLEAPWISLSLAPETLTKGNSGVVACGSNNGLLAVINCNNGGAILHLSTVIELKPEQDELDASIESISWSSKFSLMAIGLVCGEILLYDTSAWRVRHKFVLEDSVTKLMFDNDDLFASCINGKVYQFNARTGQEKFVCVGHNMGVLDFILLHPVANTGTEQKRKVITAGDEGVSLVFEVPN
Turning to B1, in the data set with Rpl10 (endogenous), the “enrichment of the RPL10 mRNA in the Sqt1-TAP purification (IgG-sepharose pull-down from cycloheximide-treated cells, TEV eluate, real-time qRT–PCR)” value was about 25 fold.

B2: NTAP-Rrb1 (natural protein, S. cerevisiae, UniProt Q04225 1-511, looked up)
chain: MSKRSIEVNEEQDRVVSAKTESHSVPAIPASEEQDAPKNDLEEQLSDEFDSDGEIIEIDGDDEINDEDDLRKKQEEAETLVQKDQSEGNKEKIQELYLPHMSRPLGPDEVLEADPTVYEMLHNVNMPWPCLTLDVIPDTLGSERRNYPQSILLTTATQSSRKKENELMVLALSNLAKTLLKDDNEGEDDEEDDEDDVDPVIENENIPLRDTTNRLKVSPFAISNQEVLTATMSENGDVYIYNLAPQSKAFSTPGYQIPKSAKRPIHTVKNHGNVEGYGLDWSPLIKTGALLSGDCSGQIYFTQRHTSRWVTDKQPFTVSNNKSIEDIQWSRTESTVFATAGCDGYIRIWDTRSKKHKPAISVKASNTDVNVISWSDKIGYLLASGDDNGTWGVWDLRQFTPSNADAVQPVAQYDFHKGAITSIAFNPLDESIVAVGSEDNTVTLWDLSVEADDEEIKQQAAETKELQEIPPQLLFVHWQKEVKDVKWHKQIPGCLVSTGTDGLNVWKTISV
With B2, the “enrichment of the RPL3 mRNA in the NTAP-Rrb1 purification (IgG-sepharose pull-down from cycloheximide-treated cells, TEV eluate, real-time qRT–PCR)” value in the data set with Rpl3 (endogenous) was about 100 fold.

B3: Rrb1: dedicated chaperone of Rpl3; purified as NTAP-Rrb1 in b27 (protein, UniProt Q04225 1-511, looked up)
Ribosome assembly protein RRB1: B2 chain
As for B3, the “soluble expression in E. coli” value in data set [1] is on record as “inefficient expression of soluble Rrb1”. Besides, the “enrichment of the specific ribosomal protein mRNA (RPL3)” value with RPL3 mRNA is reported as “roughly 100 -fold”.

B4: Rpl10-2xHA: C-terminally 2xHA-tagged Rpl10 (protein)
chain: T1 sequence (looked up)
modifications: left off: 2xHA, C-terminal, kept
notes: C-terminally 2xHA-tagged Rpl10
B4: the “solubility of newly synthesized Rpl10-2xHA” value with sqt1 mutant cells is listed as “strongly reduced”.

For the origin of these results see article PMC4491177, “Co-translational capturing of nascent ribosomal proteins by their dedicated chaperones” (Nature Communications, 2015).
